Target: AMA1 on P. falciparum 3D7 strain parasites (Plasmodium falciparum)
Experiment: cell-based or functional assay

rat mAb 4G2dc1 (antibody) gave an IC30 concentration (30% inhibition against the 3D7 target parasites, GIA) of 1800 µg/mL and an Inhibition (GIA at 1 mg/ml against the 3D7 target strain) of 22%.
